Data from patent US5877293, “CDR grafted anti-CEA antibodies and their production” (Celltech Therapeutics Limited, dated 1999).
Where a chain is given by its changes, count along the chain named.

What was measured:
[1] = target: T1, Carcinoembryonic Antigen (CEA) (Homo sapiens (Human), UniProt P06731); assay: competition RIA against 125I-labelled murine or chimeric A5B7 IgG1 on CEA coated beads
Procedure: (§1) The competition RIA for anti-CEA activity involved competition of a series of ^125I-labelled murine or chimeric A5B7 IgG1 with humanised IgG or fragments thereof from culture supernatant samples for binding to CEA coated beads. Binding activity was determined by measuring bead associated radioactivity. The assay was calibrated by competition with standard preparations of chimeric or murine A5B7 IgG1 and plotting % bound cpm versus antibody concentration. Interpolated apparent A5B7 concentration of unknowns was normalised by dividing by the assembly assay result to give a specific activity. Finally specific activity was expressed as % relative potency by comparison to that obtained from a positive control chimeric A5B7 culture supernatant produced during the same experiment.
The relative potency of purified murine and chimeric A5B7 Fab' and F(ab')_2 fragments and murine IgG was investigated using the competition RIA. In addition, the direct binding ELISA was run in competition mode, by coincubation of the test specimen with murine A5B7 IgG1, for confirmation of relative potency.
The relative potencies of murine and chimeric IgGs and fragments were measured by the competition RIA.

[2] = target: T1, Carcinoembryonic Antigen (CEA); assay: direct CEA binding ELISA, crude transient CHO supernatant (pAL43 + pBG7)
[3] = target: T1, Carcinoembryonic Antigen (CEA); assay: direct CEA binding ELISA, crude transient CHO supernatant (pAL44 + pBG7)
[4] = target: T1, Carcinoembryonic Antigen (CEA); assay: direct CEA binding ELISA, crude transient CHO supernatant (pAL45 + pBG11)
[5] = target: T1, Carcinoembryonic Antigen (CEA); assay: direct CEA binding ELISA, crude transient CHO supernatant (pAL46 + pBG11)
[6] = target: T1, Carcinoembryonic Antigen (CEA); assay: direct CEA binding ELISA, crude transient CHO supernatant
[7] = target: T1, Carcinoembryonic Antigen (CEA); assay: competition RIA on CEA coated beads, crude CHO supernatant
Procedure: as §1
In order to assess the CEA binding activity of the grafted chains co-expression, experiments in a transient CHO cell system were first performed with chimeric partners. Thus pAL43 and pAL44 were co-transfected into the CHO L761 h cell line (27) together with the chimeric A5B7 heavy chain expression plasmid pBG7, while pAL45 and pAL46 were co-transfected with the light chain expression plasmid pBG11. Co-transfections of pBG7 and pHMC19 were also performed to provide a chimeric/chimeric standard against which to compare activity of the chimeric/grafted hybrids. […] Competition RIAs were also performed on the crude CHO cell supernatants for gL1/gH2 and gL2/gH2.

B1: murine A5B7 F(ab')2 (other)
VH: EVKLVESGGGLVQPGGSLRLSCATSGFTFTDYYMNWVRQPPGKALEWLGFIGNKANGYTTEYSASVKGRFTISRDKSQSILYLQMNTLRAEDSATYYCTRDRGLRFYFDYWGQGTTLTVSS
VL: QTVLSQSPAILSASPGEKVTMTCRASSSVTYIHWYQQKPGSSPKSWIYATSNLASGVPARFSGSGSGTSYSLTISRVEAEDAATYYCQHWSSKPPTFGGGTKLEIKR
% Relative Potency [1]: 97%

B2: chimeric A5B7 IgG4 Fab' delta cys (Fab, V domains shown)
VH: B1 VH
VL: B1 VL
% Relative Potency [1]: 20%

B3: murine A5B7 Fab' (Fab, V domains shown)
VH: B1 VH
VL: B1 VL
modifications: rendered monovalent by alkylation
% Relative Potency [1]: 8%

B4: grafted light chain gL1 / chimeric A5B7 heavy chain hybrid (antibody, V domains shown)
VH: B1 VH
VL: QTVLTQSPSSLSVSVGDRVTITCRASSSVTYIHWYQQKPGLAPKSLIYATSNLASGVPSRFSGSGSGTDYTFTISSLQPEDIATYYCQHWSSKPPTFGQGTKVEVKR
binding result [2]: binds

B5: grafted light chain gL2 / chimeric A5B7 heavy chain hybrid (antibody, V domains shown)
VH: B1 VH
VL: B4 VL with I21M, L46W, F72L
binding result [3]: binds

B6: chimeric A5B7 light chain / grafted heavy chain gH1 hybrid (antibody, V domains shown)
VH: EVQLLESGGGLVQPGGSLRLSCATSGFTFTDYYMNWVRQAPGKGLEWLGFIGNKANGYTTEYSASVKGRFTISRDKSKSTLYLQMNGLQAEVSAIYYCTRDRGLRFYFDYWGQGTLVTVSS
VL: B1 VL
binding result [4]: binds

B7: chimeric A5B7 light chain / grafted heavy chain gH2 hybrid (antibody, V domains shown)
VH: B6 VH with G87T, V92D
VL: B1 VL
binding result [5]: binds

B8: Grafted A5B7 gL1/gH2 (antibody, V domains shown)
VH: B6 VH with G87T, V92D
VL: B4 VL
binding relative to the double chimeric antibody [6]: ~60%
Specific activity [7]: 0.49
relative potency [7]: 42%

B9: Grafted A5B7 gL2/gH2 (antibody, V domains shown)
VH: B6 VH with G87T, V92D
VL: B4 VL with I21M, L46W, F72L
binding relative to the double chimeric antibody [6]: ~60%
Specific activity [7]: 0.55
relative potency [7]: 47%

B10: chimeric A5B7 IgG1 (antibody, V domains shown)
VH: B1 VH
VL: B1 VL
Specific activity [7]: 1.17
relative potency [7]: 100%
% Relative Potency [1]: 100%

B11: mouse monoclonal antibody A5B7 (murine A5B7 IgG1) (antibody, V domains shown)
VH: B1 VH
VL: B1 VL
% Relative Potency [1]: 93%
